Columns and labels:
HLA-A*02:02 = assay: IEDB peptide-MHC binding, purified MHC/competitive/radioactivity; ≥ and ≤ were set here for values at or beyond the usual limits of such assays
HLA-A*02:03 = assay: as above
HLA-A*68:02 = assay: IEDB peptide-MHC binding, cellular MHC/competitive/fluorescence; ≥ and ≤ were set here for values at or beyond the usual limits of such assays
HLA-A*02:01 [1] = assay: as above
HLA-A*02:06 = assay: as above
HLA-A*02:01 [2] = assay: IEDB peptide-MHC binding, purified MHC/competitive/radioactivity; ≥ and ≤ were set here for values at or beyond the usual limits of such assays
[3] = source organism: Vaccinia virus WR
[4] = source organism: Influenza A virus
[5] = source organism: Mammarenavirus guanaritoense

## TLLNETAKVI
HLA-A*02:02; [3]
  IC50: 2.86 µM
HLA-A*02:03; [3]
  IC50: 2.13 µM
HLA-A*68:02; [3]
  IC50: 6.34 µM
HLA-A*02:01 [1]; [3]
  IC50: 16.9 µM
HLA-A*02:06; [3]
  IC50: 8.54 µM

## EILSNTTKTL
HLA-A*02:02; [3]
  IC50: 0.345 µM
HLA-A*02:03; [3]
  IC50: 0.101 µM
HLA-A*68:02; [3]
  IC50: 15.1 µM
HLA-A*02:01 [1]; [3]
  IC50: 10.1 µM
HLA-A*02:06; [3]
  IC50: ≥ 70 µM

## EIDVSEVKTL
HLA-A*02:02; [3]
  IC50: 4.95 µM
HLA-A*02:03; [3]
  IC50: 2.24 µM
HLA-A*68:02; [3]
  IC50: 8.12 µM
HLA-A*02:01 [1]; [3]
  IC50: ≥ 70 µM
HLA-A*02:06; [3]
  IC50: 56.1 µM

## LVDKEDTDIV
HLA-A*02:02; [3]
  IC50: 3.7 µM
HLA-A*02:03; [3]
  IC50: 1.68 µM
HLA-A*68:02; [3]
  IC50: 56.8 µM
HLA-A*02:01 [1]; [3]
  IC50: ≥ 70 µM
HLA-A*02:06; [3]
  IC50: 27.2 µM

## EMKYALINLV
HLA-A*02:02; [3]
  IC50: 1.26 µM
HLA-A*02:03; [3]
  IC50: 0.283 µM
HLA-A*68:02; [3]
  IC50: ≥ 70 µM
HLA-A*02:01 [1]; [3]
  IC50: 7.36 µM
HLA-A*02:06; [3]
  IC50: 9.84 µM

## YLSKEDRII
HLA-A*02:01 [2]; [3]
  IC50: 1.5 µM
HLA-A*02:02; [3]
  IC50: 0.305 µM
HLA-A*02:03; [3]
  IC50: 0.435 µM
HLA-A*68:02; [3]
  IC50: ≥ 70 µM
HLA-A*02:06; [3]
  IC50: 10.5 µM

## DTIAHINTLI
HLA-A*02:02; [3]
  IC50: 1.16 µM
HLA-A*02:03; [3]
  IC50: 0.114 µM
HLA-A*68:02; [3]
  IC50: ≥ 70 µM
HLA-A*02:01 [1]; [3]
  IC50: 10.3 µM
HLA-A*02:06; [3]
  IC50: 62.7 µM

## HLRASTTENA
HLA-A*02:02; [3]
  IC50: 0.488 µM
HLA-A*02:03; [3]
  IC50: 0.038 µM
HLA-A*68:02; [3]
  IC50: 36.3 µM
HLA-A*02:01 [1]; [3]
  IC50: 20.1 µM
HLA-A*02:06; [3]
  IC50: ≥ 70 µM

## KLDDTGKKEL
HLA-A*02:01 [2]; [3]
  IC50: 0.45 µM
HLA-A*02:02; [3]
  IC50: 0.101 µM
HLA-A*02:03; [3]
  IC50: 0.139 µM
HLA-A*68:02; [3]
  IC50: 35.2 µM
HLA-A*02:06; [3]
  IC50: 5.53 µM

## NLRCHSAHV
HLA-A*02:01 [2]; [3]
  IC50: 3.06 µM
HLA-A*02:02; [3]
  IC50: 0.384 µM
HLA-A*02:03; [3]
  IC50: 0.011 µM
HLA-A*68:02; [3]
  IC50: 8.2 µM
HLA-A*02:06; [3]
  IC50: 8.03 µM

## WLTPFEKEFT
HLA-A*02:02; [3]
  IC50: 2.37 µM
HLA-A*02:03; [3]
  IC50: 1.55 µM
HLA-A*68:02; [3]
  IC50: ≥ 70 µM
HLA-A*02:01 [1]; [3]
  IC50: 15.7 µM
HLA-A*02:06; [3]
  IC50: 30.8 µM

## YIRRNMINKL
HLA-A*02:01 [2]; [3]
  IC50: 3.8 µM
HLA-A*02:02; [3]
  IC50: 0.82 µM
HLA-A*02:03; [3]
  IC50: 0.07 µM
HLA-A*68:02; [3]
  IC50: 13.7 µM
HLA-A*02:06; [3]
  IC50: 8.67 µM

## YIENTNQGNI
HLA-A*02:02; [3]
  IC50: 1.22 µM
HLA-A*02:03; [3]
  IC50: 0.582 µM
HLA-A*68:02; [3]
  IC50: 42 µM
HLA-A*02:01 [1]; [3]
  IC50: 34.5 µM
HLA-A*02:06; [3]
  IC50: 6.2 µM

## RMGAVTTEV
HLA-A*02:01 [2]; [4]
  IC50: 0.222 µM
HLA-A*02:02; [4]
  IC50: 0.09 µM
HLA-A*02:03; [4]
  IC50: 0.073 µM
HLA-A*68:02; [4]
  IC50: 27.1 µM
HLA-A*02:06; [4]
  IC50: 5.52 µM

## RLTILGKDA
HLA-A*02:02; [4]
  IC50: 1.56 µM
HLA-A*02:03; [4]
  IC50: 3.51 µM
HLA-A*68:02; [4]
  IC50: ≥ 70 µM
HLA-A*02:01 [1]; [4]
  IC50: 10.9 µM
HLA-A*02:06; [4]
  IC50: ≥ 70 µM

## SLKRFTHTT
HLA-A*02:02; [3]
  IC50: 0.825 µM
HLA-A*02:03; [3]
  IC50: 0.0091 µM
HLA-A*68:02; [3]
  IC50: 42 µM
HLA-A*02:01 [1]; [3]
  IC50: 5.66 µM
HLA-A*02:06; [3]
  IC50: 59.7 µM

## SAFDERRNKYL
HLA-A*02:02; [4]
  IC50: 1.09 µM
HLA-A*02:03; [4]
  IC50: 2.48 µM
HLA-A*68:02; [4]
  IC50: 14.1 µM
HLA-A*02:01 [1]; [4]
  IC50: 24.3 µM
HLA-A*02:06; [4]
  IC50: ≥ 70 µM

## RLRYNLCKYL
HLA-A*02:01 [2]; [3]
  IC50: 3.25 µM
HLA-A*02:02; [3]
  IC50: 0.261 µM
HLA-A*02:03; [3]
  IC50: 0.0003 µM
HLA-A*68:02; [3]
  IC50: 19.2 µM
HLA-A*02:06; [3]
  IC50: 15.7 µM

## LLKETIQKDI
HLA-A*02:02; [3]
  IC50: 3.06 µM
HLA-A*02:03; [3]
  IC50: 0.782 µM
HLA-A*68:02; [3]
  IC50: 13.2 µM
HLA-A*02:01 [1]; [3]
  IC50: 9.03 µM
HLA-A*02:06; [3]
  IC50: 23.4 µM

## LINLVQYRIL
HLA-A*02:01 [2]; [3]
  IC50: 2.22 µM
HLA-A*02:02; [3]
  IC50: 2.12 µM
HLA-A*02:03; [3]
  IC50: 2.25 µM
HLA-A*68:02; [3]
  IC50: 29.9 µM
HLA-A*02:06; [3]
  IC50: 15.9 µM

## FMNDLQVSR
HLA-A*02:02; [5]
  IC50: 0.249 µM
HLA-A*02:03; [5]
  IC50: 0.915 µM
HLA-A*68:02; [5]
  IC50: 26.3 µM
HLA-A*02:01 [1]; [5]
  IC50: 6.25 µM
HLA-A*02:06; [5]
  IC50: 33.6 µM

## DMDFDLNIFM
HLA-A*02:01 [2]; [3]
  IC50: 1.75 µM
HLA-A*02:02; [3]
  IC50: 1.15 µM
HLA-A*02:03; [3]
  IC50: 5 µM
HLA-A*68:02; [3]
  IC50: 7.3 µM
HLA-A*02:06; [3]
  IC50: 5.32 µM

## IIAVFDSKLI
HLA-A*02:02; [3]
  IC50: 0.758 µM
HLA-A*02:03; [3]
  IC50: 0.595 µM
HLA-A*68:02; [3]
  IC50: 54.7 µM
HLA-A*02:01 [1]; [3]
  IC50: 5.93 µM
HLA-A*02:06; [3]
  IC50: 8.51 µM

## GMMQNDYGGM
HLA-A*02:01 [2]; [3]
  IC50: 0.705 µM
HLA-A*02:02; [3]
  IC50: 0.103 µM
HLA-A*02:03; [3]
  IC50: 0.589 µM
HLA-A*68:02; [3]
  IC50: 26.4 µM
HLA-A*02:06; [3]
  IC50: 12 µM

## AMHDKKIDIL
HLA-A*02:02; [3]
  IC50: 0.387 µM
HLA-A*02:03; [3]
  IC50: 1.18 µM
HLA-A*68:02; [3]
  IC50: ≥ 70 µM
HLA-A*02:01 [1]; [3]
  IC50: 8.94 µM
HLA-A*02:06; [3]
  IC50: ≥ 70 µM

## VADLSARNKL
HLA-A*02:02; [3]
  IC50: 1.17 µM
HLA-A*02:03; [3]
  IC50: 2.16 µM
HLA-A*68:02; [3]
  IC50: 7.04 µM
HLA-A*02:01 [1]; [3]
  IC50: 23 µM
HLA-A*02:06; [3]
  IC50: 35.9 µM

## TLNEYKQLYT
HLA-A*02:02; [3]
  IC50: 0.144 µM
HLA-A*02:03; [3]
  IC50: 0.773 µM
HLA-A*68:02; [3]
  IC50: ≥ 70 µM
HLA-A*02:01 [1]; [3]
  IC50: 11.5 µM
HLA-A*02:06; [3]
  IC50: ≥ 70 µM

## PASKKESVI
HLA-A*02:02; [3]
  IC50: 1.35 µM
HLA-A*02:03; [3]
  IC50: 1.76 µM
HLA-A*68:02; [3]
  IC50: ≥ 70 µM
HLA-A*02:01 [1]; [3]
  IC50: 18.8 µM
HLA-A*02:06; [3]
  IC50: 10.3 µM

## DVDMDFDLNI
HLA-A*02:01 [2]; [3]
  IC50: 4.56 µM
HLA-A*02:02; [3]
  IC50: 2.04 µM
HLA-A*02:03; [3]
  IC50: 1.52 µM
HLA-A*68:02; [3]
  IC50: 8.84 µM
HLA-A*02:06; [3]
  IC50: 5.83 µM

## NLYISDYKML
HLA-A*02:02; [3]
  IC50: 1.25 µM
HLA-A*02:03; [3]
  IC50: 1.83 µM
HLA-A*68:02; [3]
  IC50: 30.9 µM
HLA-A*02:01 [1]; [3]
  IC50: 7.88 µM
HLA-A*02:06; [3]
  IC50: 35.9 µM

## LATLNTLIT
HLA-A*02:02; [3]
  IC50: 1.16 µM
HLA-A*02:03; [3]
  IC50: 1.55 µM
HLA-A*68:02; [3]
  IC50: 13.9 µM
HLA-A*02:01 [1]; [3]
  IC50: 10.6 µM
HLA-A*02:06; [3]
  IC50: 14.2 µM

## RAMAWTVVNSI
HLA-A*02:01 [2]; [4]
  IC50: 0.624 µM
HLA-A*02:02; [4]
  IC50: 0.074 µM
HLA-A*02:03; [4]
  IC50: 0.066 µM
HLA-A*68:02; [4]
  IC50: 7.51 µM
HLA-A*02:06; [4]
  IC50: 8.06 µM

## GLSASDVDM
HLA-A*02:01 [2]; [3]
  IC50: 1.72 µM
HLA-A*02:02; [3]
  IC50: 0.497 µM
HLA-A*02:03; [3]
  IC50: 3.54 µM
HLA-A*68:02; [3]
  IC50: ≥ 70 µM
HLA-A*02:06; [3]
  IC50: 13.8 µM

## NMKPNFWSRI
HLA-A*02:02; [3]
  IC50: 1.68 µM
HLA-A*02:03; [3]
  IC50: 0.193 µM
HLA-A*68:02; [3]
  IC50: 13.1 µM
HLA-A*02:01 [1]; [3]
  IC50: 23.4 µM
HLA-A*02:06; [3]
  IC50: 13.9 µM

Source: the Immune Epitope Database (IEDB)
